The source of these data is article PMC2917394.

This experiment deals with Fluorescein-labeled CD4 tail peptide (residue 403-419). The experiment is described as follows: other fluorescence titration; 1.0 uM fluorescein-labeled CD4 tail peptide in PBS, stirred cuvette, 25 C, 30 min incubation with Nef-His proteins at 0.01 to 10 uM in 0.5 ml; quenching of emission (excitation 492 nm, emission 516 nm) as percent reduction, average of three measurements.
TPCK-modified Nef-His (natural protein): the percent quench of the peptide's fluorescence at 10 uM Nef-His is 4.9%.
As for “Nef (wt)-His, unmodified (natural protein)”, the percent quench of the peptide's fluorescence at 10 uM Nef-His was 11.6%.
Consider “Nef (C55/A)-His, untreated (natural protein)”, for which the percent quench of the peptide's fluorescence at 10 uM Nef-His was determined as 10.6%.
“TPCK-treated Nef (C55/A)-His (natural protein)” showed a percent quench of the peptide's fluorescence at 10 uM Nef-His of 9.8%.
